What was measured:
[1] = molecular target: T1, human FcγRIIa type R (allotype R131) extracellular domain with C-terminal His tag (human, UniProt P12318 34-217); test: SPR (Biacore), antibody captured, FcγR analyte
T1 construct: extracellular domain; also called FcγRIIaR; FcγRIIa R type; not shown: His tag at the C terminus
T1 sequence (looked up): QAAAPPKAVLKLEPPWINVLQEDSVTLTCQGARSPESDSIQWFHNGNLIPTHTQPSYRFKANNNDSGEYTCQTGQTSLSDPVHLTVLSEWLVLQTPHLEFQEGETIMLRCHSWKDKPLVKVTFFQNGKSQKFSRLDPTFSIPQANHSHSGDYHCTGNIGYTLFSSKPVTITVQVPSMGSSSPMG

[2] = molecular target: T2, human FcγRIIIa type V (allotype V158) extracellular domain with C-terminal His tag (human, UniProt P08637 17-208); test: SPR (Biacore), antibody captured, FcγR analyte
T2 construct: extracellular domain; also called FcγRIIIaV; FcγRIIIa V type; not shown: His tag at the C terminus

[3] = molecular target: T3, human FcγRIIb extracellular domain with C-terminal His tag (human, UniProt P31994 43-217); test: SPR (Biacore), antibody captured, FcγR as analyte
T3 construct: extracellular domain; also called FcgRIIb
T3 sequence (looked up): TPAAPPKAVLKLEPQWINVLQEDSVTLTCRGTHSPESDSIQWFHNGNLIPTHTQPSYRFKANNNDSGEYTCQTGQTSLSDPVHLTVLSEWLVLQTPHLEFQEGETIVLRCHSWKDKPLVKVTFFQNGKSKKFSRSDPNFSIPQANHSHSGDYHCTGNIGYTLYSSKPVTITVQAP

[4] = molecular target: T4, human FcγRIIa type R extracellular domain with C-terminal His tag (human, UniProt P12318 34-217); test: SPR (Biacore), antibody captured, FcγR as analyte
T4 construct: extracellular domain; also called FcγRIIaR; FcgRIIaR
T4 sequence (looked up): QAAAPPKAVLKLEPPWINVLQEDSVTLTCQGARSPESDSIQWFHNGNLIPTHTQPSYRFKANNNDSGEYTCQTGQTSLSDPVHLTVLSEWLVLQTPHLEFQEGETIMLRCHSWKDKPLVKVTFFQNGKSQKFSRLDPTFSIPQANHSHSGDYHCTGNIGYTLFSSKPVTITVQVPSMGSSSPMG

T2 sequence (P08637 17-208 F176V): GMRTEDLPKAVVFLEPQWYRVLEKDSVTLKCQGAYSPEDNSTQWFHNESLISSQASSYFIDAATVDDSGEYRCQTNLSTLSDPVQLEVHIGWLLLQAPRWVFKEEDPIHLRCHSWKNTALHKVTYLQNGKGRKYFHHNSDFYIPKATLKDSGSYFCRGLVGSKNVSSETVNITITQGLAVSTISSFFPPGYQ

B1: IL6R-BP183/IL6R-L (antibody, human IgG1, kappa)
heavy: QVQLQESGPGLVKPSETLSLTCAVSGHSISHDHAWSWVRQPPGEGLEWIGFISYSGITNYNPSLQGRVTISRDNSKNTLYLQMNSLRAEDTAVYYCARSLARTTAMDYWGEGTLVTVSSASTKGPSVFPLAPSSKSTSGGTAALGCLVKDYFPEPVTVSWNSGALTSGVHTFPAVLQSSGLYSLSSVVTVPSSSLGTQTYICNVNHKPSNTKVDKKVEPKSCDKTHTCPPCPAPDYLGGDSVFLFPPKPKDTLMISRTPEVTCVVVDVSHEDGEVKFNWYVDGVEVHNAKTKPREEQYNSTYRVVSVLTVLHQDWLNGKEYKCKVSNAALPKPIEKTISKAKGQPREPQVYTLPPSRDELTKNQVSLTCLVKGFYPSDIAVEWESNGQPENNYKTTPPVLDSDGSFFLYSKLTVDKSRWQQGNVFSCSVMHEALHNHYTQESLSLSP
light: not shown
notes: copies: 2 + 2
[1]
  Kd: 2.6 µM
[2]
  Kd: 56 µM

B2: IL6R-BP196/IL6R-L (antibody, human IgG1, kappa)
heavy: QVQLQESGPGLVKPSETLSLTCAVSGHSISHDHAWSWVRQPPGEGLEWIGFISYSGITNYNPSLQGRVTISRDNSKNTLYLQMNSLRAEDTAVYYCARSLARTTAMDYWGEGTLVTVSSASTKGPSVFPLAPSSKSTSGGTAALGCLVKDYFPEPVTVSWNSGALTSGVHTFPAVLQSSGLYSLSSVVTVPSSSLGTQTYICNVNHKPSNTKVDKKVEPKSCDKTHTCPPCPAPEYLGGDSVFLFPPKPKDTLMISRTPEVTCVVVDVSDEDGEVKFNWYVDGVEVHNAKTKPREEQYNSTYRVVSVLTVLHQDWLNGKEYKCKVSNAALPKPIEKTISKAKGQPREPQVYTLPPSRDELTKNQVSLTCLVKGFYPSDIAVEWESNGQPENNYKTTPPVLDSDGSFFLYSKLTVDKSRWQQGNVFSCSVMHEALHNHYTQESLSLSP
light: not shown
notes: copies: 2 + 2
[1]
  Kd: 3 µM
[2]
  Kd: 51 µM

B3: IL6R-BP078/IL6R-L (antibody, human IgG1, kappa)
heavy: QVQLQESGPGLVKPSETLSLTCAVSGHSISHDHAWSWVRQPPGEGLEWIGFISYSGITNYNPSLQGRVTISRDNSKNTLYLQMNSLRAEDTAVYYCARSLARTTAMDYWGEGTLVTVSSASTKGPSVFPLAPSSKSTSGGTAALGCLVKDYFPEPVTVSWNSGALTSGVHTFPAVLQSSGLYSLSSVVTVPSSSLGTQTYICNVNHKPSNTKVDKKVEPKSCDKTHTCPPCPAPELLGGDSVFLFPPKPKDTLMISRTPEVTCVVVDVSHEDPEVKFNWYVDGVEVHNAKTKPREEQYNSTYRVVSVLTVLHQDWLNGKEYKCKVSNKALPMPIEKTISKAKGQPREPQVYTLPPSRDELTKNQVSLTCLVKGFYPSDIAVEWESNGQPENNYKTTPPVLDSDGSFFLYSKLTVDKSRWQQGNVFSCSVMHEALHNHYTQESLSLSP
light: not shown
notes: IgG1 type
[3]
  KD(IIb) of parent polypeptide/KD(IIb) of altered polypeptide: 2.8 fold vs IL6R-B3/IL6R-L
[4]
  Kd: 15 µM

B4: IL6R-BP204/IL6R-L (antibody, human IgG1, kappa)
heavy: QVQLQESGPGLVKPSETLSLTCAVSGHSISHDHAWSWVRQPPGEGLEWIGFISYSGITNYNPSLQGRVTISRDNSKNTLYLQMNSLRAEDTAVYYCARSLARTTAMDYWGEGTLVTVSSASTKGPSVFPLAPSSKSTSGGTAALGCLVKDYFPEPVTVSWNSGALTSGVHTFPAVLQSSGLYSLSSVVTVPSSSLGTQTYICNVNHKPSNTKVDKKVEPKSCDKTHTCPPCPAPDLLGGDSVFLFPPKPKDTLMISRTPEVTCVVVDVSHEDGEVKFNWYVDGVEVHNAKTKPREEQYNSTYRVVSVLTVLHQDWLNGKEYKCKVSNAALPRPIEKTISKAKGQPREPQVYTLPPSRDELTKNQVSLTCLVKGFYPSDIAVEWESNGQPENNYKTTPPVLDSDGSFFLYSKLTVDKSRWQQGNVFSCSVMHEALHNHYTQESLSLSP
light: not shown
notes: copies: 2 + 2
[1]
  Kd: 4.5 µM

B5: IL6R-2B171/IL6R-L (antibody, human IgG1, kappa)
heavy: QVQLQESGPGLVKPSETLSLTCAVSGHSISHDHAWSWVRQPPGEGLEWIGFISYSGITNYNPSLQGRVTISRDNSKNTLYLQMNSLRAEDTAVYYCARSLARTTAMDYWGEGTLVTVSSASTKGPSVFPLAPSSKSTSGGTAALGCLVKDYFPEPVTVSWNSGALTSGVHTFPAVLQSSGLYSLSSVVTVPSSSLGTQTYICNVNHKPSNTKVDKKVEPKSCDKTHTCPPCPAPELLGGDSVFLFPPKPKDTLMISRTPEVTCVVVDVSHEDPEVKFNWYVDGVEVHNAKTKPREEQYNSTYRVVSVLTVLHQDWLNGKEYKCKLSNKALPAPIEKTISKAKGQPREPQVYTLPPSRDELTKNQVSLTCLVKGFYPSDIAVEWESNGQPENNYKTTPPVLDSDGSFFLYSKLTVDKSRWQQGNVFSCSVMHEALHNHYTQESLSLSP
light: not shown
notes: IgG1 type
[3]
  KD(IIb) of parent polypeptide/KD(IIb) of altered polypeptide: 2.9 fold vs IL6R-B3/IL6R-L
[4]
  Kd: 16 µM

B6: IL6R-BP210/IL6R-L (antibody, human IgG1, kappa)
heavy: QVQLQESGPGLVKPSETLSLTCAVSGHSISHDHAWSWVRQPPGEGLEWIGFISYSGITNYNPSLQGRVTISRDNSKNTLYLQMNSLRAEDTAVYYCARSLARTTAMDYWGEGTLVTVSSASTKGPSVFPLAPSSKSTSGGTAALGCLVKDYFPEPVTVSWNSGALTSGVHTFPAVLQSSGLYSLSSVVTVPSSSLGTQTYICNVNHKPSNTKVDKKVEPKSCDKTHTCPPCPAPELLGDDSVFLFPPKPKDTLMISRTPEVTCVVVDVSDEDGEVKFNWYVDGVEVHNAKTKPREEQYNSTYRVVSVLTVLHQDWLNGKEYKCKVSNKALPRPIEKTISKAKGQPREPQVYTLPPSRDELTKNQVSLTCLVKGFYPSDIAVEWESNGQPENNYKTTPPVLDSDGSFFLYSKLTVDKSRWQQGNVFSCSVMHEALHNHYTQESLSLSP
light: not shown
notes: copies: 2 + 2
[1]
  Kd: 1 µM

B7: IL6R-BP197/IL6R-L (antibody, human IgG1, kappa)
heavy: QVQLQESGPGLVKPSETLSLTCAVSGHSISHDHAWSWVRQPPGEGLEWIGFISYSGITNYNPSLQGRVTISRDNSKNTLYLQMNSLRAEDTAVYYCARSLARTTAMDYWGEGTLVTVSSASTKGPSVFPLAPSSKSTSGGTAALGCLVKDYFPEPVTVSWNSGALTSGVHTFPAVLQSSGLYSLSSVVTVPSSSLGTQTYICNVNHKPSNTKVDKKVEPKSCDKTHTCPPCPAPDYLGDDSVFLFPPKPKDTLMISRTPEVTCVVVDVSDEDGEVKFNWYVDGVEVHNAKTKPREEQDNSTYRVVSVLTVLHQDWLNGKEYKCKVSNDALPKPIEKTISKAKGQPREPQVYTLPPSRDELTKNQVSLTCLVKGFYPSDIAVEWESNGQPENNYKTTPPVLDSDGSFFLYSKLTVDKSRWQQGNVFSCSVMHEALHNHYTQESLSLSP
light: not shown
notes: copies: 2 + 2
[1]
  Kd: 0.98 µM
[2]
  Kd: 33 µM

B8: IL6R-BP102/IL6R-L (antibody, human IgG1, kappa)
heavy: QVQLQESGPGLVKPSETLSLTCAVSGHSISHDHAWSWVRQPPGEGLEWIGFISYSGITNYNPSLQGRVTISRDNSKNTLYLQMNSLRAEDTAVYYCARSLARTTAMDYWGEGTLVTVSSASTKGPSVFPLAPSSKSTSGGTAALGCLVKDYFPEPVTVSWNSGALTSGVHTFPAVLQSSGLYSLSSVVTVPSSSLGTQTYICNVNHKPSNTKVDKKVEPKSCDKTHTCPPCPAPELLGGDSVFLFPPKPKDTLMISRTPEVTCVVVDVQHEDPEVKFNWYVDGVEVHNAKTKPREEQYNSTYRVVSVLTVLHQDWLNGKEYKCKVSNKALPAPIEKTISKAKGQPREPQVYTLPPSRDELTKNQVSLTCLVKGFYPSDIAVEWESNGQPENNYKTTPPVLDSDGSFFLYSKLTVDKSRWQQGNVFSCSVMHEALHNHYTQESLSLSP
light: not shown
notes: IgG1 type
[3]
  KD(IIb) of parent polypeptide/KD(IIb) of altered polypeptide: 3.4 fold vs IL6R-B3/IL6R-L
  Kd: 0.9 µM
[4]
  Kd: 8.4 µM

B9: IL6R-BP100/IL6R-L (antibody, human IgG1, kappa)
heavy: QVQLQESGPGLVKPSETLSLTCAVSGHSISHDHAWSWVRQPPGEGLEWIGFISYSGITNYNPSLQGRVTISRDNSKNTLYLQMNSLRAEDTAVYYCARSLARTTAMDYWGEGTLVTVSSASTKGPSVFPLAPSSKSTSGGTAALGCLVKDYFPEPVTVSWNSGALTSGVHTFPAVLQSSGLYSLSSVVTVPSSSLGTQTYICNVNHKPSNTKVDKKVEPKSCDKTHTCPPCPAPELLGGDSVFLFPPKPKDTLMISRTPEVTCVVVDVAHEDPEVKFNWYVDGVEVHNAKTKPREEQYNSTYRVVSVLTVLHQDWLNGKEYKCKVSNKALPAPIEKTISKAKGQPREPQVYTLPPSRDELTKNQVSLTCLVKGFYPSDIAVEWESNGQPENNYKTTPPVLDSDGSFFLYSKLTVDKSRWQQGNVFSCSVMHEALHNHYTQESLSLSP
light: not shown
notes: IgG1 type
[3]
  KD(IIb) of parent polypeptide/KD(IIb) of altered polypeptide: 2.9 fold vs IL6R-B3/IL6R-L
[4]
  Kd: 7.8 µM

B10: IL6R-BP211/IL6R-L (antibody, human IgG1, kappa)
heavy: QVQLQESGPGLVKPSETLSLTCAVSGHSISHDHAWSWVRQPPGEGLEWIGFISYSGITNYNPSLQGRVTISRDNSKNTLYLQMNSLRAEDTAVYYCARSLARTTAMDYWGEGTLVTVSSASTKGPSVFPLAPSSKSTSGGTAALGCLVKDYFPEPVTVSWNSGALTSGVHTFPAVLQSSGLYSLSSVVTVPSSSLGTQTYICNVNHKPSNTKVDKKVEPKSCDKTHTCPPCPAPDLLGGDSVFLFPPKPKDTLMISRTPEVTCVVVDVSDEDGEVKFNWYVDGVEVHNAKTKPREEQYNSTYRVVSVLTVLHQDWLNGKEYKCKVSNAALPRPIEKTISKAKGQPREPQVYTLPPSRDELTKNQVSLTCLVKGFYPSDIAVEWESNGQPENNYKTTPPVLDSDGSFFLYSKLTVDKSRWQQGNVFSCSVMHEALHNHYTQESLSLSP
light: not shown
notes: copies: 2 + 2
[1]
  Kd: 4.1 µM
[2]
  Kd: 73 µM

B11: IL6R-BP188/IL6R-L (antibody, human IgG1, kappa)
heavy: QVQLQESGPGLVKPSETLSLTCAVSGHSISHDHAWSWVRQPPGEGLEWIGFISYSGITNYNPSLQGRVTISRDNSKNTLYLQMNSLRAEDTAVYYCARSLARTTAMDYWGEGTLVTVSSASTKGPSVFPLAPSSKSTSGGTAALGCLVKDYFPEPVTVSWNSGALTSGVHTFPAVLQSSGLYSLSSVVTVPSSSLGTQTYICNVNHKPSNTKVDKKVEPKSCDKTHTCPPCPAPDLLGDDSVFLFPPKPKDTLMISRTPEVTCVVVDVSDEDGEVKFNWYVDGVEVHNAKTKPREEQYNSTYRVVSVLTVLHQDWLNGKEYKCKVSNKALPKPIEKTISKAKGQPREPQVYTLPPSRDELTKNQVSLTCLVKGFYPSDIAVEWESNGQPENNYKTTPPVLDSDGSFFLYSKLTVDKSRWQQGNVFSCSVMHEALHNHYTQESLSLSP
light: not shown
notes: copies: 2 + 2
[1]
  Kd: 1 µM

Source: patent publication US20220389118A1 (Chugai, published 2022)
